Reference: US20260184748A1 (University of Pennsylvania, published 2026)
Where no end group is shown, it is not given here.

Legend:
Test in all cases: cell-based or functional assay
[1] = target: T1, FPRL1 (UniProt P25090 1-351)
T1 sequence (looked up): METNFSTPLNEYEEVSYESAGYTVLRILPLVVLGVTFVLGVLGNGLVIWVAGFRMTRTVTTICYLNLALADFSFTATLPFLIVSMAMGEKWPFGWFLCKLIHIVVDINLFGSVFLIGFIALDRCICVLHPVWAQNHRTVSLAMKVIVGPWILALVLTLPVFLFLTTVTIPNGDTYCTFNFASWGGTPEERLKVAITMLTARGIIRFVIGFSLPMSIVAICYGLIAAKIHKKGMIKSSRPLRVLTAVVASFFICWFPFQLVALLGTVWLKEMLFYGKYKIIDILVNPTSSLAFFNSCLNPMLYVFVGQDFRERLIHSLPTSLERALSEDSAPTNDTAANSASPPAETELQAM

[2] = target: CCR8 (UniProt P51685 1-355)
[3] = target: T2, HTR1F (UniProt P30939 1-366)
T2 sequence (looked up): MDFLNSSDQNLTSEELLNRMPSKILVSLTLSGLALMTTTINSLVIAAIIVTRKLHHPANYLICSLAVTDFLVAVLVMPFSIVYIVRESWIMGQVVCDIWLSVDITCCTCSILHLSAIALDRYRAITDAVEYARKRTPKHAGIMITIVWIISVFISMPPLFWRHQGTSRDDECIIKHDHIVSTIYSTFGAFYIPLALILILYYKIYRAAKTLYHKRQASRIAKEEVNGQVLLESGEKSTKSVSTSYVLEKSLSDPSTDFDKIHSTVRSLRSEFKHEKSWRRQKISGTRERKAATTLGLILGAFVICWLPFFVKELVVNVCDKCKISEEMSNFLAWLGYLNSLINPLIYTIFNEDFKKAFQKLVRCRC

[4] = target: T3, AVPR1B (UniProt P47901 1-424)
T3 sequence (looked up): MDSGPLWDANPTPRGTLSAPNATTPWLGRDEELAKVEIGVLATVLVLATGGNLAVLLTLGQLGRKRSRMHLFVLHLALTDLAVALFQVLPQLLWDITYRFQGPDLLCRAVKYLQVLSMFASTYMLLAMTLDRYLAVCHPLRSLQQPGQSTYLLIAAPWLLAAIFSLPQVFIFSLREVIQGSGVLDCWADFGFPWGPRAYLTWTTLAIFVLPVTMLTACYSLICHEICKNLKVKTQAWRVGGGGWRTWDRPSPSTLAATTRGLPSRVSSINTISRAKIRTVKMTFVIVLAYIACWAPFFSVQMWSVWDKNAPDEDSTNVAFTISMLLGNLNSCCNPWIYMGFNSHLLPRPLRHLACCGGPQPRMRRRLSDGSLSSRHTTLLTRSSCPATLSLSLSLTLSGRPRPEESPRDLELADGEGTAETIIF

[5] = target: PTGER2 (UniProt P43116 1-358)
[6] = target: NMBR (UniProt P28336 1-390)
[7] = target: T4, GALR2 (UniProt O43603 1-387)
T4 sequence (looked up): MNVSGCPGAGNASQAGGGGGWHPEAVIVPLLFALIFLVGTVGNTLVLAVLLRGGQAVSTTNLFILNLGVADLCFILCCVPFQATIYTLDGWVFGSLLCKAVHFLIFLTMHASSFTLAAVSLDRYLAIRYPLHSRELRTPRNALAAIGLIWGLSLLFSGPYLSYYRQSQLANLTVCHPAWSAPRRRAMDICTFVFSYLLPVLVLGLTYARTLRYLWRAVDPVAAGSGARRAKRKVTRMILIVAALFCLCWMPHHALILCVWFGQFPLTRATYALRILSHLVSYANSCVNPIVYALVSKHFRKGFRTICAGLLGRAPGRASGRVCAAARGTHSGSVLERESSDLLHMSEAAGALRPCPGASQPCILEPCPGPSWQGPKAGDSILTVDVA

[8] = target: T5, CHRM5 (UniProt P08912 1-532)
T5 sequence (looked up): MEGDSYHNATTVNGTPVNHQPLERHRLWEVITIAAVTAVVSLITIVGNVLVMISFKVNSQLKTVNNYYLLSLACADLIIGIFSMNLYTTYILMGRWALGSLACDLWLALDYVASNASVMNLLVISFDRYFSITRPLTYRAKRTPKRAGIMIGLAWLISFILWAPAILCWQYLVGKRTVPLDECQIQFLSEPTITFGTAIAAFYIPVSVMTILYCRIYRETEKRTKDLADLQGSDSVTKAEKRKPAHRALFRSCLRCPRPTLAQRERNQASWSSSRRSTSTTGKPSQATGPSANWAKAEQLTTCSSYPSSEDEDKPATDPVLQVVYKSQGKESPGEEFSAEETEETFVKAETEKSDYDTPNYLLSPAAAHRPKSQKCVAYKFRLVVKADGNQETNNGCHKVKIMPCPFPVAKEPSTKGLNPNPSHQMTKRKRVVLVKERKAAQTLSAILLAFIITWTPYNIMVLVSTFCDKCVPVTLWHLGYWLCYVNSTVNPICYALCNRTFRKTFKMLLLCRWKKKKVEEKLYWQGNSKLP

[9] = target: PTGIR (UniProt P43119 1-386, limits assumed)
[10] = target: T6, NPSR1B (UniProt Q6W5P4-4 1-377, limits assumed)
T6 sequence (looked up): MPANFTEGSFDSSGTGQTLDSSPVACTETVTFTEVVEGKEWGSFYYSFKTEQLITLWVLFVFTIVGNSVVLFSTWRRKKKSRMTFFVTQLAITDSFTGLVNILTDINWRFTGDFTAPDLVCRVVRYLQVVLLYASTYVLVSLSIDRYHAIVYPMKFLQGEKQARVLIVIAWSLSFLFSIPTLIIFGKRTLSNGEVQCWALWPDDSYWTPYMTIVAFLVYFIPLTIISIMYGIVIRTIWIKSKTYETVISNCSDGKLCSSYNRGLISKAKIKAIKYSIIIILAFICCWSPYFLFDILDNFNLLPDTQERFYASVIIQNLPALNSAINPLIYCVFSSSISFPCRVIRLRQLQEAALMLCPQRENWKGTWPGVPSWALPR

[11] = target: SSTR1 (UniProt P30872 1-391)
Chain of SSTR1 (P30872 whole entry): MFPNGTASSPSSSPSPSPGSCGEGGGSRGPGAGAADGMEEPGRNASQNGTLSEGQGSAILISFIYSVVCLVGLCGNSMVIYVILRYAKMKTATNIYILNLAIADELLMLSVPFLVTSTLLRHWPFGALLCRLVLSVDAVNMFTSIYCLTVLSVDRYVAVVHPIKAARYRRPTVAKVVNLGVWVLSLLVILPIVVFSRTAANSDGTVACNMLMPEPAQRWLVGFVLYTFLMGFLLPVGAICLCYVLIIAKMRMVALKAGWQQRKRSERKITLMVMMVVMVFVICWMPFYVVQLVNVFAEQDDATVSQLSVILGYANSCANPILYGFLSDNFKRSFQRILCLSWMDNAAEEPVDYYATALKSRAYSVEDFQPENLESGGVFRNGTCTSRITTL

Chain of NMBR (P28336 whole entry): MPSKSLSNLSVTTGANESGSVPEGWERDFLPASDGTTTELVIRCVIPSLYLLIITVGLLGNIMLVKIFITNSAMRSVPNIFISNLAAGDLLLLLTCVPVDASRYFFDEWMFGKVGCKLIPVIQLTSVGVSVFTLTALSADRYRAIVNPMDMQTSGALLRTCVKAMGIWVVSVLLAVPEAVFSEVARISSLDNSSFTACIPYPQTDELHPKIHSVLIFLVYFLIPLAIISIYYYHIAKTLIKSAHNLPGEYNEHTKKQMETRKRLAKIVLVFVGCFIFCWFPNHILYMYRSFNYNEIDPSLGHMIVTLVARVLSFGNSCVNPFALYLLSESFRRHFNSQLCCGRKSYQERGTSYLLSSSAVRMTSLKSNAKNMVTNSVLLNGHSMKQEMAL
Chain of PTGER2 (P43116 whole entry): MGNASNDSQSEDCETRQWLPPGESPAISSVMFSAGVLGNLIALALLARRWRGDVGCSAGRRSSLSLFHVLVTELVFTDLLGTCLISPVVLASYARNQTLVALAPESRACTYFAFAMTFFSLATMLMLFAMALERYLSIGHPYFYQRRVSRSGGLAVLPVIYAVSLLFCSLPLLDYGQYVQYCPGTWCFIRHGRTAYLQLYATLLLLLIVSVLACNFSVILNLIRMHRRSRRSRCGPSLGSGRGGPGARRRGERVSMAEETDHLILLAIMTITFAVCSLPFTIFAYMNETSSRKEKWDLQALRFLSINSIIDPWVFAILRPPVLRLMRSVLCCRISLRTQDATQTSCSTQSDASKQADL
Chain of PTGIR (P43119 whole entry): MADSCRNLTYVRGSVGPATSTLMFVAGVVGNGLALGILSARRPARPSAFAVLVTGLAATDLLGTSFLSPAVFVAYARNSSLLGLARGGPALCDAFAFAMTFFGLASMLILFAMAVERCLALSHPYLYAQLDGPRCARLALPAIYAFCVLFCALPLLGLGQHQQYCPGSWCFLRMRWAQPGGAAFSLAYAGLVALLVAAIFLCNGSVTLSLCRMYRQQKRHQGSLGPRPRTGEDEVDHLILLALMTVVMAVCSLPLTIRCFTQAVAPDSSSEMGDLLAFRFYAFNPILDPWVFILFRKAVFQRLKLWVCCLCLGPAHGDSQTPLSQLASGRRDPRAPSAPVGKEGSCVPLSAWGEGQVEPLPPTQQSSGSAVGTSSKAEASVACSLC

QATVGDVNTDRPGLLDLK (also: synthesised on Rink amide resin, C-terminal amide not given here outright) [octadecaneuropeptide (ODN)]
% Activity, arrestin, antagonist mode, 2.5 uM [1]: -17.7%
% Activity, arrestin, antagonist mode, 2.5 uM [2]: -17%
% Activity, arrestin, antagonist mode, 2.5 uM [3]: -23.3%
% Activity, arrestin, antagonist mode, 2.5 uM [4]: -25.7%
% Activity, arrestin, antagonist mode, 2.5 uM [5]: 2.1%
% Activity, arrestin, antagonist mode, 2.5 uM [6]: -7.7%
% Activity, arrestin, antagonist mode, 2.5 uM [7]: -29.7%
% Activity, arrestin, antagonist mode, 2.5 uM [8]: -1.5%
% Activity, arrestin, antagonist mode, 2.5 uM [9]: -20%
% Activity, arrestin, antagonist mode, 2.5 uM [10]: 15.5%
% Activity, arrestin, antagonist mode, 2.5 uM [11]: -1.6%
